From patent publication US20200362047A1 (CRESCENDO BIOLOGICS, published 2020) come the findings set out here.

This assay deals with T1, human CD137 expressed on the surface of CHO cells (human, UniProt Q07011 24-255).
T1 construct: Also used for the Jurkat reporter cells that express human CD137 (functional rows); also called CHO human CD137 cells; CHO huCD137
Put plainly: FMAT ligand inhibition, CD137 Ligand on CHO human CD137 cells. As to the method:
In parallel to the binding assay, periplasmic extracts were tested for their ability to inhibit the interaction of human CD137 ligand protein with CHO human CD137 cells in an FMAT format. Total binding controls containing diluted periplasmic extract sample buffer and non-specific binding controls containing excess non-Fc tagged competitor were set up on each plate for data normalisation. Fluorescence signal was measured using the TTP Mirrorball and the FL2 median mean fluorescence intensity of gated used for the data normalisation. The data was expressed as a % of the total binding control (% control) after subtraction of the background signal determined from the non-specific binding control wells.
The ability of purified Humabody VH to inhibit the binding of CD137 Ligand to CHO human CD137 cells was measured in the FMAT ligand inhibition assay essentially as described in Example 6. VH inhibited the binding of human CD137 Ligand to human CD137.

T1 sequence (Q07011 24-255 limits assumed): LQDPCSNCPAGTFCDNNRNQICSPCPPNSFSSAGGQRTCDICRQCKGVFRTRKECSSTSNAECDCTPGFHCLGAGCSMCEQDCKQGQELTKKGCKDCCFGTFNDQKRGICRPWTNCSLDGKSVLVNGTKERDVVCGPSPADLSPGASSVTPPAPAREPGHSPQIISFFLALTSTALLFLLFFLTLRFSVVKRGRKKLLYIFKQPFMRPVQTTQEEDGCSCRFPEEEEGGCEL

B1: Humabody VH 2.41 (VHH)
VHH: EVQLVESGGGLVKPGGSLRLSCAASGFTFSDYYMSWFRQAPGKGLEWVSYISGSGDIIDYADSVKGRFTISRDNAKNSLYLQMNNLRAEDTAVYHCAREDSRLTGTTDFDNWGQGTLVTVSS
notes: human single VH domain
As to B1, the IC50 – broadly, the concentration that gives 50% inhibition – is 16 nM.

B2: Humabody VH 2.50 (VHH)
VHH: EVQLVESGGGLVKPGGSLRLSCAASGFTFSDYYMSWFRQAPGKGLEWVSYISGSGDIIDYADSVKGRFTISRDNAKNSLYLQMNSLRAEDTAVYYCAREDARLTGTTDFDNWGQGTLVTVSS
notes: human single VH domain
With B2, 14 nM corresponded to half-maximal inhibition (IC50). The IC50 values of the last two molecules are within 1.5-fold of each other.

B3: Humabody VH 2.48 (VHH)
VHH: EVQLVESGGGLVKPGGSLRLSCAASGFTFSDYYMSWIRQAPGKGLEWVSYISGSGDIIDYADSVKGRFTISRDNAKNSLYLQMNSLRAEDTAVYYCAREDARLTGTTDFDNWGQGTLVTVSS
notes: human single VH domain
As to B3, the IC50 was 86 nM.

B4: Humabody VH 2.42 (VHH)
VHH: EVQLVESGGGLVKPGGSLRVSCAASGFTFSDYYMSWIRQAPGKGLEWVSYISGSGDIIDYADSVKGRFTISRDNAKNSLYLQMNNLRAEDTAVYHCAREDSRLTGTTDFDNWGQGTLVTVSS
notes: human single VH domain
As to B4, the IC50 amounted to 200 nM.

B5: Humabody VH 2.46 (VHH)
VHH: EVQLVESGGGLVKPGGSLRLSCAASGFTFSDYYMSWIRQAPGKGLEWVSYISGSGDIIDYADSVKGRFTISRDNAKNSLYLQMNSLRAEDTAVYYCAREDSRLTGTTDFDNWGQGTLVTVSS
notes: human single VH domain
As for B5, the IC50 came out at 78 nM.

B6: Humabody VH 2.45 (VHH)
VHH: EVQLVESGGGLVKPGGSLRLSCAASGFTFSDYYMSWFRQAPGKGLEWVSYISGSGDIIDYADSVKGRFTISRDNAKNSLYLQMNNLRAEDTAVYYCAREDSRLTGTTDFDNWGQGTLVTVSS
notes: human single VH domain
In the case of B6, half-maximal inhibition (IC50) required 5.3 nM.

B7: Humabody VH 2.49 (VHH)
VHH: EVQLVESGGGLVKPGGSLRLSCAASGFTFSDYYMSWIRQAPGKGLEWVSYISGSGDIIDYADSVKGRFTISRDNAKNSLYLQMNSLRAEDTAVYYCAREDPRLTGTTDFDNWGQGTLVTVSS
notes: human single VH domain
For B7, the half-maximal inhibitory concentration (IC50) was determined as 42 nM. This IC50 lies about 7.9-fold higher than the previous one.

B8: Humabody VH 2.51 (VHH)
VHH: EVQLVESGGGLVKPGGSLRLSCAASGFTFSDYYMSWFRQAPGKGLEWVSYISGSGDIIDYADSVKGRFTISRDNAKNSLYLQMNSLRAEDTAVYYCAREDPRLTGTTDFDNWGQGTLVTVSS
notes: human single VH domain
As for B8, the IC50 amounted to 27 nM.

B9: Humabody VH 2.47 (VHH)
VHH: EVQLVESGGGLVKPGGSLRLSCAASGFTFSDYYMSWFRQAPGKGLEWVSYISGSGDIIDYADSVKGRFTISRDNAKNSLYLQMNSLRAEDTAVYYCAREDSRLTGTTDFDNWGQGTLVTVSS
notes: human single VH domain
On to B9, for which the IC50 was determined as 8.8 nM.

B10: Humabody VH 1.107 (VHH)
VHH: EVQLVESGGGLVQPGGSLRLSCAASGFTLSNYWMNWVRQAPGKGLEWVANINQDGSERYYVDSVKGRFTISRDNAKNSLYLQMSSLRAEDTAVYFCARGGEGYGVDHYGLDVSGQGTTVTVSS
notes: human single VH domain
Take B10: the half-inhibitory concentration (IC50) was found to be 0.55 nM. Against the preceding molecule, the IC50 is about 16-fold lower.

B11: Humabody VH 1.108 (VHH)
VHH: EVQLVESGGGLVQPGGSLRLSCAATGFTLSNYWMNWVRQAPGKGLEWVANINQDGSERYYVDSVKGRFTISRDNAKNSLYLQMNSLRAEDTAVYFCARGGEGYGVDHYGLDVSGQGTTVTVSS
notes: human single VH domain
With B11, the IC50 came to 0.5 nM.

B12: Humabody VH 1.110 (VHH)
VHH: EVQLVESGGGLVQPGGSLRLSCAASGFTLSNYWMNWVRQAPGKGLEWVANINQDGSERYYVDSVKGRFTISRDNAKNSLYLQMNSLRAEDTAVYFCARGGEGYGVDHYGLDVSGQGTTVTVSS
notes: human single VH domain
As to B12, it took 0.81 nM to reach half-maximal inhibition (IC50).

B13: Humabody VH 1.109 (VHH)
VHH: EVQLVESGGGLVQPGGSLRLSCAATGFTLSNYWMNWVRQAPGKGLEWVANINQDGSERYYVDSVKGRFTISRDNAKNSLYLQMSSLRAEDTAVYYCARGGEGYGVDHYGLDVSGQGTTVTVSS
notes: human single VH domain
For the molecule B13, the IC50 is 0.9 nM.

B14: Humabody VH 1.90 (VHH)
VHH: EVQLVESGGGLVQPGGSLRLSCAASGFTFSSHWMTWVRQAPGKGLEWVAHIKEDGSEKYYEDSVEGRFTVSRDNAKNSVYLQMNSLRAEDTAVYYCARGGDGYSDSHFGVDVWGQGTTVTVSS
notes: human single VH domain
Molecule B14 had a half-maximal inhibitory concentration (IC50) of 7.8 nM. This IC50 is about 8.7-fold higher than that of the molecule before.

B15: Humabody VH 1.103 (VHH)
VHH: EVQLVESGGGLVQPGGSLRLSCAASGFTFSSHWMTWFRQAPGKGLEWVAHIKEDGSEKYYVDSVKGRFTISRDNAKNSLYLQMNSLRAEDTAVYYCARGGEGYSDSHFGVDVWGQGTTVTVSS
notes: human single VH domain
On to B15, for which the IC50 turned out to be 1.3 nM. Against the preceding molecule, the IC50 is about 6-fold lower.

B16: Humabody VH 1.106 (VHH)
VHH: EVQLVESGGGLVQPGGSLRLSCAASGFTFSSHWMTWFRQAPGKGLEWVAHIKEDESEKYYVDSVKGRFTISRDNAKNSLYLQMNSLRAEDTAVYYCARGGEGYSISHFGVDVWGQGTTVTVSS
notes: human single VH domain
B16: the IC50 is 2.1 nM.

B17: Humabody VH 1.96 (VHH)
VHH: EVQLVESGGGLVQPGGSLRLSCAASGFTFSSHWMTWFRQAPGKGLEWVAHIKEDGSEKYYVDSVKGRFTISRDNAKNSLYLQMNSLRAEDTAVYYCARGGDGYSDSHFGVDVWGQGTTVTVSS
notes: human single VH domain
Take B17: it took 2.7 nM to reach half-maximal inhibition (IC50).

B18: Humabody VH 1.97 (VHH)
VHH: EVQLVESGGGLVQPGGSLRLSCAASGFTFSSHWMTWVRQAPGKGLEWVAHIKEDESEKYYVDSVKGRFTISRDNAKNSLYLQMNSLRAEDTAVYYCARGGVGYSISHFGVDVWGQGTTVTVSS
notes: human single VH domain
As for B18, the IC50 turned out to be 3.8 nM.

B19: Humabody VH 1.102 (VHH)
VHH: EVQLVESGGGLVQPGGSLRLSCAASGFTFSSHWMTWFRQAPGKGLEWVAHIKEEGSEKYYVDSVKGRFTISRDNAKNSLYLQMNSLRAEDTAVYYCARGGDGYSDSHFGVDVWGQGTTVTVSS
notes: human single VH domain
On to B19, for which the IC50 worked out at 1.7 nM.

B20: Humabody VH 1.92 (VHH)
VHH: EVQLVESGGGLVQPGGSLRLSCAASGFTFSSHWMTWFRQAPGKGLEWVAHIKEDGSEKYYEDSVKGRFTVSRDNAKNSVYLQMNSLRAEDTAVYYCARGGDGYSDSHFGVDVWGQGTTVTVSS
notes: human single VH domain
As to B20, the midpoint of inhibition, the IC50, lay at 2.9 nM.

B21: Humabody VH 1.94 (VHH)
VHH: EVQLVESGGGLVQPGGSLRLSCAASGFTFSSHWMTWFRQAPGKGLEWVAHIKEDGSEKYYEDSVEGRFTVSRDNAKNSLYLQMNSLRAEDTAVYYCARGGDGYSDSHFGVDVWGQGTTVTVSS
notes: human single VH domain
Consider B21, for which the half-inhibitory concentration (IC50) came to 0.8 nM. This IC50 is about 3.6-fold lower than that of the molecule before.

B22: Humabody VH 1.95 (VHH)
VHH: EVQLVESGGGLVQPGGSLRLSCAASGFTFSSHWMTWVRQAPGKGLEWVAHIKEDGSEKYYVDSVKGRFTISRDNAKNSLYLQMNSLRAEDTAVYYCARGGDGYSDSHFGVDVWGQGTTVTVSS
notes: human single VH domain
The molecule B22 displayed an IC50 of 24 nM.

B23: Humabody VH 1.100 (VHH)
VHH: EVQLVESGGGLVQPGGSLRLSCAASGFTFSSHWMTWFRQAPGKGLEWVAHIKEDESEKYYVDSVKGRFTISRDNAKNSLYLQMNSLRAEDTAVYYCARGGDGYSISHFGVDVWGQGTTVTVSS
notes: human single VH domain
Molecule B23 yielded an IC50 of 1.4 nM.

B24: Humabody VH 1.93 (VHH)
VHH: EVQLVESGGGLVQPGGSLRLSCAASGFTFSSHWMTWFRQAPGKGLEWVAHIKEDGSEKYYEDSVEGRFTISRDNAKNSVYLQMNSLRAEDTAVYYCARGGDGYSDSHFGVDVWGQGTTVTVSS
notes: human single VH domain
B24: the IC50 worked out at 0.7 nM.

B25: Humabody VH 1.99 (VHH)
VHH: EVQLVESGGGLVQPGGSLRLSCAASGFTFSSHWMTWFRQAPGKGLEWVAHIKEDESEKYYVDSVKGRFTISRDNAKNSLYLQMNSLRAEDTAVYYCARGGDGYSDSHFGVDVWGQGTTVTVSS
notes: human single VH domain
B25: the concentration for half-maximal inhibition (IC50) was determined as 1.5 nM. Compared with the last molecule, the IC50 is about 2.1-fold higher.

B26: Humabody VH 1.104 (VHH)
VHH: EVQLVESGGGLVQPGGSLRLSCAASGFTFSSHWMTWFRQAPGKGLEWVAHIKEDGSEKYYVDSVKGRFTISRDNAKNSLYLQMNSLRAEDTAVYYCARGGVGYSDSHFGVDVWGQGTTVTVSS
notes: human single VH domain
For the molecule B26, the half-maximal inhibitory concentration (IC50) was determined as 1.1 nM.

B27: Humabody VH 1.105 (VHH)
VHH: EVQLVESGGGLVQPGGSLRLSCAASGFTFSSHWMTWFRQAPGKGLEWVAHIKEDESEKYYVDSVKGRFTISRDNAKNSLYLQMNSLRAEDTAVYYCARGGVGYSISHFGVDVWGQGTTVTVSS
notes: human single VH domain
In turn, B27 yielded an IC50 of 2.8 nM.

B28: Humabody VH 1.91 (VHH)
VHH: EVQLVESGGGLVQPGGSLRLSCAASGFTFSSHWMTWFRQAPGKGLEWVAHIKEDGSEKYYVDSVKGRFTVSRDNAKNSVYLQMNSLRAEDTAVYYCARGGDGYSDSHFGVDVWGQGTTVTVSS
notes: human single VH domain
In turn, B28 displayed an IC50 of 1.9 nM. This IC50 and that of the molecule before are within 1.5-fold of each other.

B29: Humabody VH 1.98 (VHH)
VHH: EVQLVESGGGLVQPGGSLRLSCAASGFTFSSHWMTWVRQAPGKGLEWVAHIKEDESEKYYVDSVKGRFTISRDNAKNSLYLQMNSLRAEDTAVYYCARGGEGYSISHFGVDVWGQGTTVTVSS
notes: human single VH domain
B29: the IC50 was 4.7 nM.

B30: Humabody VH 1.101 (VHH)
VHH: EVQLVESGGGLVQPGGSLRLSCAASGFTFSSHWMTWFRQAPGKGLEWVAHIKEGGSEKYYVDSVKGRFTISRDNAKNSLYLQMNSLRAEDTAVYYCARGGDGYSDSHFGVDVWGQGTTVTVSS
notes: human single VH domain
In turn, B30 yielded an IC50 of 7.9 nM.
